Data taken from PMC6894463, “Improved spectrophotometric assay for lytic polysaccharide monooxygenase” (Biotechnology for Biofuels, 2019).

Substrate: COc1cc(-c2cc(OC)c(O)c(OC)c2)cc(OC)c1O
Experiment: purified protein
Type: biochemical, Neurospora crassa
Details: 100 µM H2O2 co-substrate, 50 mM sodium phosphate pH 6.0, apparent, no saturation reached

B1: NcLPMO9C (Neurospora crassa OR74A) (protein)
chain: HTIFQKVSVNGADQGQLKGIRAPANNNPVTDVMSSDIICNAVTMKDSNVLTVPAGAKVGHFWGHEIGGAAGPNDADNPIAASHKGPIMVYLAKVDNAATTGTSGLKWFKVAEAGLSNGKWAVDDLIANNGWSYFDMPTCIAPGQYLMRAELIALHNAGSQAGAQFYIGCAQINVTGGGSASPSNTVSFPGAYSASDPGILINIYGGSGKTDNGGKPYQIPGPALFTCPAGGSGGSSPAPATTASTPKPTSASAPKPVSTTASTPKPTNGSGSGTGAAHSTKCGGSKPAATTKASNPQPTNGGNSAVRAAALYGQCGGKGWTGPTSCASGTCKFSNDWYSQCLP
notes: full-length secreted enzyme, recombinant in Pichia pastoris X-33, purified
Km: 3.6 ± 0.5 mM
